Test results from patent US20140087995A1 (published 2014).
Each block holds one binder with its values, some of them ahead of it. Numbered stars: 1 amine (or outer) side, 2 acyl side, 3 side chain; on linkers, the order of the positions; unused ones are H or OH. Bridge positions count the residues as written; N and C are the ends. Side chains are listed from the residue outwards. Ends that are not written are not given here. * marks the point of attachment. C20 diacid = O=C(O)CCCCCCCCCCCCCCCCCCC(=O)*; γGlu = O=C(O)[C@H](CCC(=O)[*:2])N[*:1]; C14 diacid = O=C(O)CCCCCCCCCCCCC(=O)*; AEEA = NCCOCCOCC(=O)O

Tests used:
[1] = molecular target: T1, human amylin receptor (amylin 3(a) receptor: human calcitonin receptor with RAMP-3) (human, UniProt P30988 25-474; O60896 24-148, limits assumed); assay: SPA competition binding on membranes of BHK cells with human calcitonin receptor + RAMP-3; displacement of 125I-rat amylin (Assay V)
T1 construct: whole, on cells; Whole cells in the luciferase assay (Assay II a); also called hAmylin-R; hAmylinR
T1 sequence (looked up) 1: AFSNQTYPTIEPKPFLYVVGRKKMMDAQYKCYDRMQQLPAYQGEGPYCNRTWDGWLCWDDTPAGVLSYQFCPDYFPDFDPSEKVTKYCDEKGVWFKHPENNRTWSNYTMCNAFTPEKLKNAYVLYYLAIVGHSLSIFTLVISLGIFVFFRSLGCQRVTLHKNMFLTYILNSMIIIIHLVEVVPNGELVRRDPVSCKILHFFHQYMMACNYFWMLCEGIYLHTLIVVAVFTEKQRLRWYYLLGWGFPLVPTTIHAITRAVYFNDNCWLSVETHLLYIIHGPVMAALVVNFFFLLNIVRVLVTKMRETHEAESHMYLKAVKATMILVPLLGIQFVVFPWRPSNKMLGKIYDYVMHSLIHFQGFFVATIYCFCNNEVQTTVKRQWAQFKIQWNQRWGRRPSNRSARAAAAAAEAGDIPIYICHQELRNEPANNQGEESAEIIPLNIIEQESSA
T1 sequence (looked up) 2: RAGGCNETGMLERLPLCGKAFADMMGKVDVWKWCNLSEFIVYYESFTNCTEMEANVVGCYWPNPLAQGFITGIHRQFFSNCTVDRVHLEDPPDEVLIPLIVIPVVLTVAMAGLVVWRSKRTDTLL
Experimental: The binding assay was performed using scintillation proximity assay (SPA) beads (RPNQ0001) from PerkinElmer and cell membranes from the Amylin 3(a)/CRE-luc cells (as described in Assay (II)) were used. Membranes were prepared in the following way; the cells were rinsed with PBS and incubated with Versene for approximately 5 min before harvesting. The cells were flushed with PBS and the cell-suspension was centrifuged for 5 min at 1000 rpm. Cells were homogenized (ultrathurrax) in a buffer containing 20 mM Na-HEPES and 10 mM EDTA (pH 7.4) and centrifuged at 20.000 rpm for 15 min. The resulting pellet was resuspended, homogenized and centrifuged (20.000 rpm, 15 min) in a buffer containing 20 mM Na-HEPES and 0.1 mM EDTA (pH 7.4, buffer 2). The resulting pellet was resuspended in buffer 2 and protein concentration was measured (BCA protein Assay, Pierce). The homogenate was kept cold during the whole procedure. The membranes were kept at −80° C. until use. The assay was performed in a 384 well Optiplate (PerkinElmer) in a total volume of 40 ul. Membranes were mixed with SPA beads. Final concentration of membranes 35 ng/μL final and SPA beads was 0.05 mg/well. Test-compounds were dissolved in DMSO and further diluted in assay buffer (50 mM Hepes, pH 7.4, 1 mM CaCl2, 5 mM MgCl₂, 0.1% OA and 0.02% Tween20). […] The final mixture was incubated with shaking at 400 rpm for 120 min at 25° C. prior to centrifugation (1500 rpm, 10 min). Samples were analyzed on TopCounter™ (Packard). The IC₅₀ was calculated using (one site binding competition analysis) GraphPad Prism5 as a measure of receptor affinity.

[2] = molecular target: T2, human calcitonin receptor (human, UniProt P30988 25-474); assay: cell-based or functional assay
T2 sequence (looked up): T1 sequence (looked up) 1

IC50 [1]: 0.249 nM
B1: N^ε1-[2-[2-[2-[[(4S)-4-carboxy-4-(19-carboxynonadecanoylamino)butanoyl]amino]ethoxy]ethoxy]acetyl]-[Arg17,Pro21,Pro27,Arg35]-h-amylin (peptide)
peptide: K([AEEA-γGlu-C20 diacid])CNTATCATQRLANFLRHSSPNFGAIPSSTNVGSRTY-NH2
modifications: disulfide 2-7; N-terminus assumed
SMILES: CC[C@H](C)[C@H](NC(=O)[C@H](C)NC(=O)CNC(=O)[C@H](Cc1ccccc1)NC(=O)[C@H](CC(N)=O)NC(=O)[C@@H]1CCCN1C(=O)[C@H](CO)NC(=O)[C@H](CO)NC(=O)[C@H](Cc1c[nH]cn1)NC(=O)[C@H](CCCNC(=N)N)NC(=O)[C@H](CC(C)C)NC(=O)[C@H](Cc1ccccc1)NC(=O)[C@H](CC(N)=O)NC(=O)[C@H](C)NC(=O)[C@H](CC(C)C)NC(=O)[C@H](CCCNC(=N)N)NC(=O)[C@H](CCC(N)=O)NC(=O)[C@@H](NC(=O)[C@H](C)NC(=O)[C@@H]1CSSC[C@H](NC(=O)[C@@H](N)CCCCNC(=O)COCCOCCNC(=O)CC[C@H](NC(=O)CCCCCCCCCCCCCCCCCCC(=O)O)C(=O)O)C(=O)N[C@@H](CC(N)=O)C(=O)N[C@@H]([C@@H](C)O)C(=O)N[C@@H](C)C(=O)N[C@@H]([C@@H](C)O)C(=O)N1)[C@@H](C)O)C(=O)N1CCC[C@H]1C(=O)N[C@@H](CO)C(=O)N[C@@H](CO)C(=O)N[C@H](C(=O)N[C@@H](CC(N)=O)C(=O)N[C@H](C(=O)NCC(=O)N[C@@H](CO)C(=O)N[C@@H](CCCNC(=N)N)C(=O)N[C@H](C(=O)N[C@@H](Cc1ccc(O)cc1)C(N)=O)[C@@H](C)O)C(C)C)[C@@H](C)O
notes: also called compound 38

hCTR funct. EC50 (pM) [2]: 2360 pM
B2: N^ε1-[(4S)-4-carboxy-4-[[(4S)-4-carboxy-4-(19-carboxynonadecanoylamino)butanoyl]amino]butanoyl]-[Glu14,Arg17,Pro21,Pro27,Pro34,Glu35]-h-amylin (peptide)
peptide: K([γGlu-γGlu-C20 diacid])CNTATCATQRLAEFLRHSSPNFGAIPSSTNVGPETY-NH2
modifications: disulfide 2-7; N-terminus assumed
SMILES: CC[C@H](C)[C@H](NC(=O)[C@H](C)NC(=O)CNC(=O)[C@H](Cc1ccccc1)NC(=O)[C@H](CC(N)=O)NC(=O)[C@@H]1CCCN1C(=O)[C@H](CO)NC(=O)[C@H](CO)NC(=O)[C@H](Cc1c[nH]cn1)NC(=O)[C@H](CCCNC(=N)N)NC(=O)[C@H](CC(C)C)NC(=O)[C@H](Cc1ccccc1)NC(=O)[C@H](CCC(=O)O)NC(=O)[C@H](C)NC(=O)[C@H](CC(C)C)NC(=O)[C@H](CCCNC(=N)N)NC(=O)[C@H](CCC(N)=O)NC(=O)[C@@H](NC(=O)[C@H](C)NC(=O)[C@@H]1CSSC[C@H](NC(=O)[C@@H](N)CCCCNC(=O)CC[C@H](NC(=O)CC[C@H](NC(=O)CCCCCCCCCCCCCCCCCCC(=O)O)C(=O)O)C(=O)O)C(=O)N[C@@H](CC(N)=O)C(=O)N[C@@H]([C@@H](C)O)C(=O)N[C@@H](C)C(=O)N[C@@H]([C@@H](C)O)C(=O)N1)[C@@H](C)O)C(=O)N1CCC[C@H]1C(=O)N[C@@H](CO)C(=O)N[C@@H](CO)C(=O)N[C@H](C(=O)N[C@@H](CC(N)=O)C(=O)N[C@H](C(=O)NCC(=O)N1CCC[C@H]1C(=O)N[C@@H](CCC(=O)O)C(=O)N[C@H](C(=O)N[C@@H](Cc1ccc(O)cc1)C(N)=O)[C@@H](C)O)C(C)C)[C@@H](C)O
notes: synthetic peptide amide

hCTR funct. EC50 (pM) [2]: 11800 pM
B3: N^ε1-[2-[2-[2-[[2-[2-[2-[[(4S)-4-carboxy-4-(19-carboxynonadecanoylamino)butanoyl]amino]ethoxy]ethoxy]acetyl]amino]ethoxy]ethoxy]acetyl]-[Arg17,Pro21,Pro27,His34 … (peptide)
peptide: K([AEEA-AEEA-γGlu-C20 diacid])CNTATCATQRLANFLRHSSPNFGAIPSSTNVGHNTY-NH2
modifications: disulfide 2-7; N-terminus assumed
SMILES: CC[C@H](C)[C@H](NC(=O)[C@H](C)NC(=O)CNC(=O)[C@H](Cc1ccccc1)NC(=O)[C@H](CC(N)=O)NC(=O)[C@@H]1CCCN1C(=O)[C@H](CO)NC(=O)[C@H](CO)NC(=O)[C@H](Cc1c[nH]cn1)NC(=O)[C@H](CCCNC(=N)N)NC(=O)[C@H](CC(C)C)NC(=O)[C@H](Cc1ccccc1)NC(=O)[C@H](CC(N)=O)NC(=O)[C@H](C)NC(=O)[C@H](CC(C)C)NC(=O)[C@H](CCCNC(=N)N)NC(=O)[C@H](CCC(N)=O)NC(=O)[C@@H](NC(=O)[C@H](C)NC(=O)[C@@H]1CSSC[C@H](NC(=O)[C@@H](N)CCCCNC(=O)COCCOCCNC(=O)COCCOCCNC(=O)CC[C@H](NC(=O)CCCCCCCCCCCCCCCCCCC(=O)O)C(=O)O)C(=O)N[C@@H](CC(N)=O)C(=O)N[C@@H]([C@@H](C)O)C(=O)N[C@@H](C)C(=O)N[C@@H]([C@@H](C)O)C(=O)N1)[C@@H](C)O)C(=O)N1CCC[C@H]1C(=O)N[C@@H](CO)C(=O)N[C@@H](CO)C(=O)N[C@H](C(=O)N[C@@H](CC(N)=O)C(=O)N[C@H](C(=O)NCC(=O)N[C@@H](Cc1c[nH]cn1)C(=O)N[C@@H](CC(N)=O)C(=O)N[C@H](C(=O)N[C@@H](Cc1ccc(O)cc1)C(N)=O)[C@@H](C)O)C(C)C)[C@@H](C)O
notes: synthetic peptide amide; also called compound 97

hCTR funct. EC50 (pM) [2]: 1630 pM
B4: N^ε1-[2-[2-[2-[[2-[2-[2-[[(4S)-4-carboxy-4-(19-carboxynonadecanoylamino)butanoyl]amino]ethoxy]ethoxy]acetyl]amino]ethoxy]ethoxy]acetyl]-[Arg17,Pro21,Pro27,Pro34 … (peptide)
peptide: K([AEEA-AEEA-γGlu-C20 diacid])CNTATCATQRLANFLRHSSPNFGAIPSSTNVGPNTY-NH2
modifications: disulfide 2-7; N-terminus assumed
SMILES: CC[C@H](C)[C@H](NC(=O)[C@H](C)NC(=O)CNC(=O)[C@H](Cc1ccccc1)NC(=O)[C@H](CC(N)=O)NC(=O)[C@@H]1CCCN1C(=O)[C@H](CO)NC(=O)[C@H](CO)NC(=O)[C@H](Cc1c[nH]cn1)NC(=O)[C@H](CCCNC(=N)N)NC(=O)[C@H](CC(C)C)NC(=O)[C@H](Cc1ccccc1)NC(=O)[C@H](CC(N)=O)NC(=O)[C@H](C)NC(=O)[C@H](CC(C)C)NC(=O)[C@H](CCCNC(=N)N)NC(=O)[C@H](CCC(N)=O)NC(=O)[C@@H](NC(=O)[C@H](C)NC(=O)[C@@H]1CSSC[C@H](NC(=O)[C@@H](N)CCCCNC(=O)COCCOCCNC(=O)COCCOCCNC(=O)CC[C@H](NC(=O)CCCCCCCCCCCCCCCCCCC(=O)O)C(=O)O)C(=O)N[C@@H](CC(N)=O)C(=O)N[C@@H]([C@@H](C)O)C(=O)N[C@@H](C)C(=O)N[C@@H]([C@@H](C)O)C(=O)N1)[C@@H](C)O)C(=O)N1CCC[C@H]1C(=O)N[C@@H](CO)C(=O)N[C@@H](CO)C(=O)N[C@H](C(=O)N[C@@H](CC(N)=O)C(=O)N[C@H](C(=O)NCC(=O)N1CCC[C@H]1C(=O)N[C@@H](CC(N)=O)C(=O)N[C@H](C(=O)N[C@@H](Cc1ccc(O)cc1)C(N)=O)[C@@H](C)O)C(C)C)[C@@H](C)O
notes: synthetic peptide amide; also called compound 98

hCTR funct. EC50 (pM) [2]: 1090 pM
B5: N^ε1-[(4S)-4-carboxy-4-(13-carboxytridecanoylamino)butanoyl]-[Arg17,Pro21,Pro27,His34]-h-amylin (peptide)
peptide: K([γGlu-C14 diacid])CNTATCATQRLANFLRHSSPNFGAIPSSTNVGHNTY-NH2
modifications: disulfide 2-7; N-terminus assumed
SMILES: CC[C@H](C)[C@H](NC(=O)[C@H](C)NC(=O)CNC(=O)[C@H](Cc1ccccc1)NC(=O)[C@H](CC(N)=O)NC(=O)[C@@H]1CCCN1C(=O)[C@H](CO)NC(=O)[C@H](CO)NC(=O)[C@H](Cc1c[nH]cn1)NC(=O)[C@H](CCCNC(=N)N)NC(=O)[C@H](CC(C)C)NC(=O)[C@H](Cc1ccccc1)NC(=O)[C@H](CC(N)=O)NC(=O)[C@H](C)NC(=O)[C@H](CC(C)C)NC(=O)[C@H](CCCNC(=N)N)NC(=O)[C@H](CCC(N)=O)NC(=O)[C@@H](NC(=O)[C@H](C)NC(=O)[C@@H]1CSSC[C@H](NC(=O)[C@@H](N)CCCCNC(=O)CC[C@H](NC(=O)CCCCCCCCCCCCC(=O)O)C(=O)O)C(=O)N[C@@H](CC(N)=O)C(=O)N[C@@H]([C@@H](C)O)C(=O)N[C@@H](C)C(=O)N[C@@H]([C@@H](C)O)C(=O)N1)[C@@H](C)O)C(=O)N1CCC[C@H]1C(=O)N[C@@H](CO)C(=O)N[C@@H](CO)C(=O)N[C@H](C(=O)N[C@@H](CC(N)=O)C(=O)N[C@H](C(=O)NCC(=O)N[C@@H](Cc1c[nH]cn1)C(=O)N[C@@H](CC(N)=O)C(=O)N[C@H](C(=O)N[C@@H](Cc1ccc(O)cc1)C(N)=O)[C@@H](C)O)C(C)C)[C@@H](C)O
notes: synthetic peptide amide
